Source: the nanobody polyreactivity screen of Harvey et al. (2022)

Assay: yeast display, Sf9 membrane polyspecificity reagent, FACS + sequencing; frameworks hold sequencing errors
How it was run: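 Synthetic nanobody libraries on Saccharomyces cerevisiae BJ5465 were galactose-induced for 36–48 hours, stained 1 hour at 4 °C with 10% biotinylated, detergent-solubilized Sf9 membrane reagent and enriched on streptavidin microbeads. FACS then separated cells into low and high (top ~1%) gates by anti-HA (expression) and streptavidin (reagent binding) fluorescence. Genes were colony-PCR amplified, MiSeq 2 × 250 sequenced and CDR-length filtered. A clone's polyreactivity label is that of its gate of origin.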

Row | Sequence | polyreactivity (PSR sort gate)
1 | QVQLVESGGGLVQAGGSLRLSCAASGYTFDTNALGWYRLAPGTEREFVAAISSTGGTYYADSVKGRFTISRDNAKNTVYLQMNSLKPEDTAVYYCAATFIQVVVIVQLYDYDYWRQGTQVTVSS | low polyreactivity
2 | QVQLVESGGGLVQAGGSLRLSCAASGYTFFYYAMGWSRQAPGKERELVAIDLNGGSTYYADSVKGRFTISRDNAKNTVYLQMNSLKPEDTAVSSCAATRPWYGDVGYLEDYWGQGTQVTVSS | low polyreactivity
3 | QVQLVESGGGLVQAGGSLRLSCAASGYTFGEYAMGWYRQAPGKERELVATISLSDGSTNYADSVKGRFTISRDNAKNTVYLQMNSLKPEDTAVYYCATETQQALYGSVLKYNYWGQGTQVTVSS | low polyreactivity
4 | QVQLVESGGGLVQAGGSLRLSCAASGYTFGGNAMGWYRQAPGKERELVAAISNTGGRTNYADSVKGRFTISRDNAKNTVYLQMNSLKPEDTAVSYCAKSVYYRDRYGGDYWGQGTQVTVSS | low polyreactivity
5 | QVQLVESGGGLVQAGGSLRLSCAASGYTFGINAMGWYRQAPGNERELVAAITTGGSTNYADSVKGRFTISRDNAKNTVYLQMNSLTPEDTAVYYCNASWDGWNANYWYPGAYYYWGQGTQVTVSS | low polyreactivity
6 | QVQLVESGGGLVQAGGSLRLSCAASGYTFGKYAMGWYRQAPGKEREWVAGISSRGGSTYYADSVKGRFTISRDNAKNTVYLQMNSLKPEDTAVYYCAAVAYTGGPRKLGFNYWGQGTQVTVSS | high polyreactivity
7 | QVQLVESGGGLVQAGGSLRLSCAASGYTFGPYAMGWYRQAPGKERELVAAITTRGGSTYYADSVKGRFTISRYNAKNTVYLQMNSLKPEDTAVYYCAAESIRSDDYWGQGTQVTVSS | high polyreactivity
8 | QVQLVESGGGLVQAGGSLRLSCAASGYTFGYNAMGWYRQAPGKERELVATISSGGTTTYADSVKGRFTISRDNAKNTVYLQMNSLKPEDTAVYYCNVYDYPTYDYWGQGTQVTVSS | low polyreactivity
9 | QVQLVESGGGLVQAGGSLRLSCAASGYTFGYYAMGWYRQAPGKERELVAAINWSGGSTYYADSVKGRFTISRDNAKNTVYLQMNSLKPEDTAVYYCNRRTGSYGRTPVWKGEYYYWGQGTQVTVSS | high polyreactivity
10 | QVQLVESGGGLVQAGGSLRLSCAASGYTFGYYAMGWYRQAPGKERELVAAISWRGARTNYADSVKGRFTISRDNAKNTVYLQMNSLKPEDTAVYYCAAGYYYGYPPRDYWGQGTQVTVSS | high polyreactivity
11 | QVQLVESGGGLVQAGGSLRLSCAASGYTFHGYAMGWYRQAPGKERELVAVITQRGGSTSYADSVKGRFTISRDNAKNTVYLQMNSLKPEDTAVYYCNADGPSTPWVDYGYWGQGTQVTVSS | low polyreactivity
12 | QVQLVESGGGLVQAGGSLRLSCAASGYTFKRYAMGWYRQAPGKESDLVASITRRGGSTYYADSVKGRFTISRDNAKNTVNLQMNSLKPEDTAVYDCAKSIPLGYTIYDYWGQGTQVTVSS | high polyreactivity
13 | QVQLVESGGGLVQAGGSLRLSCAASGYTFKVYAMGWYRQAPGKERELVAAIRSSGGSTYADSVKGRFTISRDNAKNTVYLQMNSLKPEDTAVYYCAKAGYVSGLYSATRYEYWGQGTQVTVSS | low polyreactivity
14 | QVQLVESGGGLVQAGGSLRLSCAASGYTFLYYAMGWYRQAPGKEREFVAAISRSGGSTYYADSVKGRFTISRDNAKNTVYLQMNSLKPEDTAVYFCAARFRYQHQRGDYWGQGTQVTVSS | high polyreactivity
15 | QVQLVESGGGLVQAGGSLRLSCAASGYTFNFNAMGWYRQAPGKERELVAAITWNGGRTYYADSVKGRFTISRDNAKNTVYLQMNSLKPEDTAVYYCAARSYQRPSDTRYDYWGQGTQVTVSS | high polyreactivity
16 | QVQLVESGGGLVQAGGSLRLSCAASGYTFNYYAMGWYRQAPGKERELVAAIRSTGSTNYADSVKGRFTISRDNAKNTVYLQMKSLKPEDTAVYYCAAKIRKDYSIQGYDYWGQGSQVTVSS | high polyreactivity

Row | Sequence | polyreactivity (PSR sort gate)
17 | QVQLVESGGGLVQAGGSLRLSCAASGYTFPLYAMGWSRQAPGKEREFVAAISKRSGTTYYADSVKGRFTISRDNAKNTVYLQMNSLKPEDTAVYYCAASNGYQAVTYDYWGQGTQVTVSS | high polyreactivity
18 | QVQLVESGGGLVQAGGSLRLSCAASGYTFPLYAMGWYRQAPGQERELVADINIGGASTYYADSVKGRFTISRDNAKNTVYLQMNSLKPEDTAVYYSAKEYYDGYFPTFDYDYWGQGTQVTVSS | low polyreactivity
19 | QVQLVESGGGLVQAGGSLRLSCAASGYTFPMYAMGWYRQAPGKERELVADINIGGASTYYADSVKGRFTISRDNAKNTVYLQMNSLKPEDSAVYYCAKEYYDGYFPTFDYDYWGQGTQVTVSS | low polyreactivity
20 | QVQLVESGGGLVQAGGSLRLSCAASGYTFPYAMGWYRQAPGKERELVAAISSRGSSTYYADSVKGRFTISRDNAKNTVYLQINSLKPEDTAVYYCAAKHFVKVDYWGQGTQVTVSS | high polyreactivity
21 | QVQLVESGGGLVQAGGSLRLSCAASGYTFQHYAMGWYRQAPGKERELVAAITRRGSGTYYADSVKGRFTSSRDNAKNTVYLQMNSLKPEDTAVYYCAAAVGHGVDYWGQGTQVTVSS | high polyreactivity
22 | QVQLVESGGGLVQAGGSLRLSCAASGYTFRAYAMGWYRQAPGKEREFVAAISRSGGSTYYADSVKGRFTISRDNAKNTVYLQMNSLKPEDTAVYYCARRYARITPVYPPLNYWGQGSQVTVSS | high polyreactivity
23 | QVQLVESGGGLVQAGGSLRLSCAASGYTFRGNAMGWYRQAPGKERELVAAISIGGTTYYADSVKGRFTISRDNAKNTVYLQMNSLKPVDTAVYYCARRGLAFLFDYWGQGTQVTVSS | low polyreactivity
24 | QVQLVESGGGLVQAGGSLRLSCAASGYTFRKYAMGWYRQAPGKERELVAAITYTGGSTYYADSVKGRFTISRDNAKNTVYLQMNSLKPEDTAVYYCARRYRWGEYGYWGQGTQVTVSS | high polyreactivity
25 | QVQLVESGGGLVQAGGSLRLSCAASGYTFRYYAMGWYRQAPGKEREFVAAITWSDSGTYYADSVKGRFTISRDNAKNTVYLQMNSLKPEDTAVYYCAAERYLSFDRYLYEYYYWGQGTQVTVSS | low polyreactivity
26 | QVQLVESGGGLVQAGGSLRLSCAASGYTFRYYGMGWYRQAPGNERELVADINSNGVRTYYADSVKGRFTISRDNAKNTVYVQMNSLKPEDTAVYYCNKDWGRYRYDYWGQGTQVTVSS | high polyreactivity
27 | QVQLVESGGGLVQAGGSLRLSCAASGYTFSDNAMGWSRQAPGKERDLVAAITSGVSKYFADSVKGRFTISRDNAKNTVYLQMNSLKPEDTADYYFAKDVAVYADLYQGAPYGYWGQGTQVTVSS | low polyreactivity
28 | QVQLVESGGGLVQAGGSLRLSCAASGYTFSDNAMGWYRPAPGKERELVAAITSGVSTYYADSVKGRFRISRDNAKNSVYLQMNSLNPEDTAVYYCAAEPDTYWYTYDYWGQGTQVTVSS | low polyreactivity
29 | QVQLVESGGGLVQAGGSLRLSCAASGYTFSDNAMGWYRQAPGKEWELVAAISTGGSTNYADSVKGRFTISRDNAKNTVYLQMNSLKPEDTAVYYCATDAWSFGYNYVPLHYDYWGQGTQVTVSS | low polyreactivity
30 | QVQLVESGGGLVQAGGSLRLSCAASGYTFSFYAMGWYRQAPGKERELVAAISSSDGTTYYADSEKGRFTISRDNAKNTVYLQMNSLKPEDTAVYYCNTRYVRQVVGTYTLKTRYYWGQGTQVTVSS | high polyreactivity
31 | QVQLVESGGGLVQAGGSLRLSCAASGYTFSFYAMGWYRQATGKERELVADISRSGGSTYYADSVKGRFTISRDNAKNTVYLQMNSQKPEDTAVYYCAARWPGAYHEYGYLGQGTQVTVSS | high polyreactivity
